Values belong to the binder of their own block, whether it stands above or below them.
Columns and labels:
[1] = molecular target: T1, chemokine receptor CCR1 (human, UniProt P32246 1-355); assay: radioligand competition binding on CCR1
T1 construct: whole, on cells
T1 sequence (looked up): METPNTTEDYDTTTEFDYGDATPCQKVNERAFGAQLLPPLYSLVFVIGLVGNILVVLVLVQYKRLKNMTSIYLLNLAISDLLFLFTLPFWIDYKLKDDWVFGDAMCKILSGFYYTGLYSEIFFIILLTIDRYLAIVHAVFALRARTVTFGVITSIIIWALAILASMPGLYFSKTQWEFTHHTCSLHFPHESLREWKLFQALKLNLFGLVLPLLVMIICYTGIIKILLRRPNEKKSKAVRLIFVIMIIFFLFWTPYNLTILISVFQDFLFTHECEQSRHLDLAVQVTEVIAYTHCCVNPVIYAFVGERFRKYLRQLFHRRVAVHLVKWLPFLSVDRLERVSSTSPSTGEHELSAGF

[2] = molecular target: T2, chemokine receptor 5 (CCR5; AC P51681) (human, UniProt P51681 1-352); assay: cell-based or functional assay
[3] = molecular target: T3, chemokine receptor CCR3 (human, UniProt P51677 1-355); assay: radioligand competition, 125I-Eotaxin tracer on CCR3
T3 construct: whole, on cells; Aequorin assays used whole cells
T3 sequence (looked up): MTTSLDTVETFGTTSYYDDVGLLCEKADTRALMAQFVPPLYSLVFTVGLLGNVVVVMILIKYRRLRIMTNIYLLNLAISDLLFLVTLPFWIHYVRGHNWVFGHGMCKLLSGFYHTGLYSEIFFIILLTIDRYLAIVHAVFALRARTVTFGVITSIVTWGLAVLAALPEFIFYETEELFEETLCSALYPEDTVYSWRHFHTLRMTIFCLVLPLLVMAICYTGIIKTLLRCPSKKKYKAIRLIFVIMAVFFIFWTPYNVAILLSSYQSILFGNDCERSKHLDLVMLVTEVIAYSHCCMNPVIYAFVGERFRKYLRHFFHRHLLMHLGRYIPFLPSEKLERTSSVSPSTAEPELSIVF

[4] = molecular target: T2, chemokine receptor 5 (CCR5; AC P51681); assay: radioligand competition, 125I-MIP 1-alpha tracer on CCR5
[5] = molecular target: T1, chemokine receptor CCR1; assay: radioligand competition, 125I-Rantes tracer on CCR1
[6] = molecular target: T1, chemokine receptor CCR1; assay: radioligand competition, 0.1 nM 125I-Rantes tracer, membranes of CHO-K1 cells expressing CCR1
[7] = molecular target: T1, chemokine receptor CCR1; assay: cell-based or functional assay
[8] = molecular target: T3, chemokine receptor CCR3; assay: cell-based or functional assay
[9] = molecular target: T2, chemokine receptor 5 (CCR5; AC P51681); assay: radioligand competition, 0.1 nM 125I-MIP 1-alpha tracer, membranes of CHO-K1 cells expressing CCR5
[10] = molecular target: T3, chemokine receptor CCR3; assay: radioligand competition, 0.1 nM 125I-Eotaxin tracer, membranes of CHO-K1 cells expressing CCR3

T2 sequence (P51681 whole entry, one chain of several): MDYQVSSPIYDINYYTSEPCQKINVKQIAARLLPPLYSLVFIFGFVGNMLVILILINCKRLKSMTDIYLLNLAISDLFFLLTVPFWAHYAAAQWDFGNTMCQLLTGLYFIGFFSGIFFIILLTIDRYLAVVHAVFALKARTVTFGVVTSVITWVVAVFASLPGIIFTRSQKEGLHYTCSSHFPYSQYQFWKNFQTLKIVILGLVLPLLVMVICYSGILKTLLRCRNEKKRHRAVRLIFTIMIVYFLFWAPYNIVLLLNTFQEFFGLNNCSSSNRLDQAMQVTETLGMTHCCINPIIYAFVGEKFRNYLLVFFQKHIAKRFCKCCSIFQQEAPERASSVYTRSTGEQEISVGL

Ki [1]: 100 nM
B1: full size HCC-1 (HCC-1, residues 1-74) (ligand)
chain: TKTESSSRGPYHPSECCFTYTTYKIPRQRIMDYYETNSQCSKPGIVFITKRGHSVCTNPSDKWVQDYIKDMKEN
notes: also called full-length HCC-1; HCC-1, 1-74

Aequorin assay, activation of CCR5 transfected CHO-K1 cells, EC50 [2]: 3.3 nM
B2: MIP 1-alpha (ligand, UniProt P10147 24-92, looked up)
chain: SLAADTPTACCFSYTSRQIPQNFIADYFETSSQCSKPGVIFLTKRSRQVCADPSEEWVQKYVSDLELSA
modifications: also: 125I-labelled as tracer, position not given here

Ki [3]: 2.7 nM | Ki [4]: 0.04 nM | Ki [5]: 0.023 nM | IC50 [6]: 2.3 nM | Aequorin assay, EC50 [7]: 2.8 nM | Aequorin assay, activation of CCR5 transfected CHO-K1 cells, EC50 [2]: 4.8 nM | Aequorin assay, EC50 [8]: 78 nM | IC50 [9]: 0.04 nM | IC50 [10]: 78 nM
B3: processed chemokine PHC-1 (HCC-1, residues 9-74) (ligand)
chain: GPYHPSECCFTYTTYKIPRQRIMDYYETNSQCSKPGIVFITKRGHSVCTNPSDKWVQDYIKDMKEN
notes: also called HCC-1[9-74]

Aequorin assay, EC50 [7]: 6.3 nM | Aequorin assay, activation of CCR5 transfected CHO-K1 cells, EC50 [2]: 2.4 nM
B4: RANTES (ligand, UniProt P13501 24-91, looked up)
chain: SPYSSDTTPCCFAYIARPLPRAHIKEYFYTSGKCSNPAVVFVTRKNRQVCANPEKKWVREYINSLEMS
modifications: also: 125I-labelled as tracer, position not given here

Source: EP1224288B1 (Pharis Biotec GmbH, dated 2006)
